# Test results from IntAct's records for PubMed 19850040.
# B1: Post-transcriptional regulator MTA (Human herpesvirus 8), Q2HR75 (parent)
# chain: MVQAMIDMDIMKGILEDSVSSSEFDESRDDETDAPTLEDEQLSEPAEPPADERIRGTQSAQGIPPPLGRIPKKSQGRSQLRSEIQFCSPLSRPRSPSPVNRYGKKIKFGTAGQNTRPPPEKRPRRRPRDRLQYGRTTRGGQCRAAPKRATRRPQVNCQRQDDDVRQGVSDAVKKLRLPASMIIDGESPRFDDSIIPRHHGACFNVFIPAPPSHVPEVFTDRDITALIRAGGKDDELINKKISAKKIDHLHRQMLSFVTSRHNQAYWVSCRRETAAAGGLQTLGAFVEEQMTWAQTVVRHGGWFDEKDIDIILDTAIFVCNAFVTRFRLLHLSCVFDKQSELALIKQVAYLVAMGNRLVEACNLLGEVKLNFRGGLLLAFVLTIPGMQSRRSISARGQELFRTLLEYYRPGDVMGLLNVIVMEHHSLCRNSECAAATRAAMGSAKFNKGLFFYPLS
# Variants of: B1
# Conditions: with thoc4_human ALYREF
row,Variant,effect of a mutation on the interaction
1,MVQAMIDMDIMKGILEDSVSSSEFDESRDDETDAPTLEDEQLSEPAEPPADERIRGTQSAQGIPPPLGRIPKKSQGRSQLRSEIQFCSPLSRPRSPSPVNRYGKKIKFGTAGQNTRPPPEKSPRRRPRDRLQYGRTTRGGQCRAAPKRATRRPQVNCQRQDDDVRQGVSDAVKKLRLPASMIIDGESPRFDDSIIPRHHGACFNVFIPAPPSHVPEVFTDRDITALIRAGGKDDELINKKISAKKIDHLHRQMLSFVTSRHNQAYWVSCRRETAAAGGLQTLGAFVEEQMTWAQTVVRHGGWFDEKDIDIILDTAIFVCNAFVTRFRLLHLSCVFDKQSELALIKQVAYLVAMGNRLVEACNLLGEVKLNFRGGLLLAFVLTIPGMQSRRSISARGQELFRTLLEYYRPGDVMGLLNVIVMEHHSLCRNSECAAATRAAMGSAKFNKGLFFYPLS [R122S],disrupting interaction
2,MVQAMIDMDIMKGILEDSVSSSEFDESRDDETDAPTLEDEQLSEPAEPPADERIRGTQSAQGIPPPLGRIPKKSQGRSQLRSEIQFCSPLSRPRSPSPVNRYGKKIKFGTAGQNTRPPPEKRPQRRPRDRLQYGRTTRGGQCRAAPKRATRRPQVNCQRQDDDVRQGVSDAVKKLRLPASMIIDGESPRFDDSIIPRHHGACFNVFIPAPPSHVPEVFTDRDITALIRAGGKDDELINKKISAKKIDHLHRQMLSFVTSRHNQAYWVSCRRETAAAGGLQTLGAFVEEQMTWAQTVVRHGGWFDEKDIDIILDTAIFVCNAFVTRFRLLHLSCVFDKQSELALIKQVAYLVAMGNRLVEACNLLGEVKLNFRGGLLLAFVLTIPGMQSRRSISARGQELFRTLLEYYRPGDVMGLLNVIVMEHHSLCRNSECAAATRAAMGSAKFNKGLFFYPLS [R124Q],disrupting interaction
3,MVQAMIDMDIMKGILEDSVSSSEFDESRDDETDAPTLEDEQLSEPAEPPADERIRGTQSAQGIPPPLGRIPKKSQGRSQLRSEIQFCSPLSRPRSPSPVNRYGKKIKFGTAGQNTRPPPEKRPRGRPRDRLQYGRTTRGGQCRAAPKRATRRPQVNCQRQDDDVRQGVSDAVKKLRLPASMIIDGESPRFDDSIIPRHHGACFNVFIPAPPSHVPEVFTDRDITALIRAGGKDDELINKKISAKKIDHLHRQMLSFVTSRHNQAYWVSCRRETAAAGGLQTLGAFVEEQMTWAQTVVRHGGWFDEKDIDIILDTAIFVCNAFVTRFRLLHLSCVFDKQSELALIKQVAYLVAMGNRLVEACNLLGEVKLNFRGGLLLAFVLTIPGMQSRRSISARGQELFRTLLEYYRPGDVMGLLNVIVMEHHSLCRNSECAAATRAAMGSAKFNKGLFFYPLS [R125G],disrupting interaction
4,MVQAMIDMDIMKGILEDSVSSSEFDESRDDETDAPTLEDEQLSEPAEPPADERIRGTQSAQGIPPPLGRIPKKSQGRSQLRSEIQFCSPLSRPRSPSPVNRYGKKIKFGTAGQNTRPPPEKRPRRRPRDGLQYGRTTRGGQCRAAPKRATRRPQVNCQRQDDDVRQGVSDAVKKLRLPASMIIDGESPRFDDSIIPRHHGACFNVFIPAPPSHVPEVFTDRDITALIRAGGKDDELINKKISAKKIDHLHRQMLSFVTSRHNQAYWVSCRRETAAAGGLQTLGAFVEEQMTWAQTVVRHGGWFDEKDIDIILDTAIFVCNAFVTRFRLLHLSCVFDKQSELALIKQVAYLVAMGNRLVEACNLLGEVKLNFRGGLLLAFVLTIPGMQSRRSISARGQELFRTLLEYYRPGDVMGLLNVIVMEHHSLCRNSECAAATRAAMGSAKFNKGLFFYPLS [R130G],disrupting interaction
5,MVQAMIDMDIMKGILEDSVSSSEFDESRDDETDAPTLEDEQLSEPAEPPADERIRGTQSAQGIPPPLGRIPKKSQGRSQLRSEIQFCSPLSRPRSPSPVNRYGKKIKFGTAGQNTRPPPEKRPRRRPSDRLQYGRTTRGGQCRAAPKRATRRPQVNCQRQDDDVRQGVSDAVKKLRLPASMIIDGESPRFDDSIIPRHHGACFNVFIPAPPSHVPEVFTDRDITALIRAGGKDDELINKKISAKKIDHLHRQMLSFVTSRHNQAYWVSCRRETAAAGGLQTLGAFVEEQMTWAQTVVRHGGWFDEKDIDIILDTAIFVCNAFVTRFRLLHLSCVFDKQSELALIKQVAYLVAMGNRLVEACNLLGEVKLNFRGGLLLAFVLTIPGMQSRRSISARGQELFRTLLEYYRPGDVMGLLNVIVMEHHSLCRNSECAAATRAAMGSAKFNKGLFFYPLS [R128S],disrupting interaction
6,MVQAMIDMDIMKGILEDSVSSSEFDESRDDETDAPTLEDEQLSEPAEPPADERIRGTQSAQGIPPPLGRIPKKSQGRSQLRSEIQFCSPLSRPRSPSPVNRYGKKIKFGTAGQNTRPPPEMRPRRRPRDRLQYGRTTRGGQCRAAPKRATRRPQVNCQRQDDDVRQGVSDAVKKLRLPASMIIDGESPRFDDSIIPRHHGACFNVFIPAPPSHVPEVFTDRDITALIRAGGKDDELINKKISAKKIDHLHRQMLSFVTSRHNQAYWVSCRRETAAAGGLQTLGAFVEEQMTWAQTVVRHGGWFDEKDIDIILDTAIFVCNAFVTRFRLLHLSCVFDKQSELALIKQVAYLVAMGNRLVEACNLLGEVKLNFRGGLLLAFVLTIPGMQSRRSISARGQELFRTLLEYYRPGDVMGLLNVIVMEHHSLCRNSECAAATRAAMGSAKFNKGLFFYPLS [K121M],disrupting interaction
7,MVQAMIDMDIMKGILEDSVSSSEFDESRDDETDAPTLEDEQLSEPAEPPADERIRGTQSAQGIPPPLGRIPKKSQGRSQLRSEIQFCSPLSRPRSPSPVNRYGKKIKFGTAGQNTRPPPEKRPRREPRDRLQYGRTTRGGQCRAAPKRATRRPQVNCQRQDDDVRQGVSDAVKKLRLPASMIIDGESPRFDDSIIPRHHGACFNVFIPAPPSHVPEVFTDRDITALIRAGGKDDELINKKISAKKIDHLHRQMLSFVTSRHNQAYWVSCRRETAAAGGLQTLGAFVEEQMTWAQTVVRHGGWFDEKDIDIILDTAIFVCNAFVTRFRLLHLSCVFDKQSELALIKQVAYLVAMGNRLVEACNLLGEVKLNFRGGLLLAFVLTIPGMQSRRSISARGQELFRTLLEYYRPGDVMGLLNVIVMEHHSLCRNSECAAATRAAMGSAKFNKGLFFYPLS [R126E],disrupting interaction
